The values below come from article PMC12120770, “Unveiling Structural Heterogeneity and Evolutionary Adaptations of Heteromultimeric Bacterioferritin Nanocages” (Advanced Science, 2025).

Data set [1] deals with the molecule itself. Nature of the data set: cryo-EM structure; single-particle cryo-EM of purified SoBfr12 (1.7 mg mL^-1), subunits co-expressed in E. coli; refined with C1 symmetry, 2.62 Å.
Data set [2] concerns the molecule itself. Nature of the data set: native gel or EMSA; purified PaBfrB on 6% native PAGE, Tris-glycine pH 8.3, 4 °C.

The term stoichiometry N denotes a count of units in the complex or per binding partner.

B1: SoBfr2, heme-binding subunit of the Shewanella oneidensis hetero-bacterioferritin SoBfr12 (natural protein)
chain: MKGHPKVVGQLNRVLTCELTAINQYFLHARMFKHWGLEKLNHVEYKKSIEDMKHADKLIERVLFLEGLPNLQQLEKLRIGEHAQEMLDCDLAMVQEQLTLLRDAITLCEAEQDYVSRDLLEDILEDEEEHLDWLESQRELIGLTGIQNYLQSQISES
B1: the “stoichiometry N” value in data set [1] was found to be 2.

B2: PaBfrB, Pseudomonas aeruginosa homo-bacterioferritin subunit (natural protein)
chain: not shown
notes: also called homo-Bfr
Take B2: the binding result in data set [2] is on record as “binds”.

B3: SoBfr1, heme-free subunit of the Shewanella oneidensis hetero-bacterioferritin SoBfr12 (natural protein)
chain: MKGDKDVIDALNRLLTGELSAMDQYFVHAHMYEDWGLNELYERIAHESDDEKGHAAKLVQRILFLEGVPNVAAREALNIGSNVEEMLRNDLAYEYKVADDLRKVIALCEQKKDYQTREILEVLLDDTESDHMYWLEKQLGLIDRIGLANYLQTKM
notes: SoBfr1, heme-free bacterioferritin subunit of Shewanella oneidensis, amplified from genomic DNA together with SoBfr2; Expressed from one DNA fragment encoding SoBfr2 and SoBfr1 with a Strep-tag II; not shown: Strep-tag II, C-terminal, kept
Take B3: the “stoichiometry N” value in data set [1] amounted to 2.
